These results are taken from publication PMC3531522, “Nasal Colonisation by Staphylococcus aureus Depends upon Clumping Factor B Binding to the Squamous Epithelial Cell Envelope Protein Loricrin” (PLoS Pathogens, 2012).

Sequences and labels used below:
B1: GST-Fgα_(316–367) (domain or fragment, UniProt P02671 335-386, looked up)
chain: NSGSSGTGSTGNQNPGSPRPGSTGTWNPGSSERGSAGHWTSESSVSGSTGQW
notes: Fibrinogen α-chain, residues 316-367, repeat domain 5 of the αC region; also called repeat domain 5 of the αC region of Fg
B2: Recombinant ClfB N2N3 (rClfB_(201–542)) (domain or fragment)
chain: AEPVVNAADAKGTNVNDKVTASNFKLEKTTFDPNQSGNTFMAANFTVTDKVKSGDYFTAKLPDSLTGNGDVDYSNSNNTMPIADIKSTNGDVVAKATYDILTKTYTFVFTDYVNNKENINGQFSLPLFTDRAKAPKSGTYDANINIADEMFNNKITYNYSSPIAGIDKPNGANISSQIIGVDTASGQNTYKQTVFVNPKQRVLGNTWVYIKGYQDKIEESSGKVSATDTKLRIFEVNDTSKLSDSYYADPNDSNLKEVTDQFKNRIYYEHPNVASIKFGDITKTYVVLVEGHYDNTGKNLKTQVIQENVDPVTNRDYSIFGWNNENVVRYGGGSADGDSAVN
notes: Clumping factor B (ClfB) of S. aureus, amino acids 201-542 (subdomains N2 and N3 of the A domain), amplified from plasmid pCU1:clfB; also called ClfB N2N3_(201–542); ClfB N23_(201–542); not shown: His6, N-terminal, kept
B3: GST-human loricrin_(1–315) (natural protein, UniProt P23490 1-312, looked up)
chain: MSYQKKQPTPQPPVDCVKTSGGGGGGGGSGGGGCGFFGGGGSGGGSSGSGCGYSGGGGYSGGGCGGGSSGGGGGGGIGGCGGGSGGSVKYSGGGGSSGGGSGCFSSGGGGSGCFSSGGGGSSGGGSGCFSSGGGGSSGGGSGCFSSGGGGFSGQAVQCQSYGGVSSGGSSGGGSGCFSSGGGGGSVCGYSGGGSGCGGGSSGGSGSGYVSSQQVTQTSCAPQPSYGGGSSGGGGSGGSGCFSSGGGGGSSGCGGGSSGIGSGCIISGGGSVCGGGSSGGGGGGSSVGGSGSGKGVPICHQTQQKQAPTWPSK
notes: Loricrin, human, full length, printed as residues 1-315 (S1 to K315); also called HLor; Hlor; source: DNA codon optimised for E. coli, in pGEX-4T; purified on GSTrap FF; not shown: GST, N-terminal, kept
B4: GST-human K10_(544–563) (peptide)
chain: GGSSGGGSSSGGGYGGGSSS
notes: Cytokeratin 10 (K10), human, residues 544-563 (C-terminal tail region); also called HK10; GST-HK10; source: DNA codon optimised for E. coli, in pGEX-4T; purified on GSTrap FF; not shown: GST, N-terminal, kept
B5: GST-murine K10_(454–570) (domain or fragment, UniProt P02535 454-570, looked up)
chain: EGSSSGGGGGRRGGSGGGSYGGSSGGGSYGGSSGGGGSYGGSSGGGGSYGGGSSGGGSHGGSSGGGYGGGSSSGGAGGHGGSSGGGYGGGSSSGGQGGSGGFKSSGGGDQSSKGPRY
notes: Cytokeratin 10 (K10), murine, residues 454-570 (C-terminal tail region); also called MK10; GST-MK10; source: DNA codon optimised for E. coli, in pGEX-4T; purified on GSTrap FF; not shown: GST, N-terminal, kept

Holding throughout (experiment): SPR; BIAcore X100; GST-tagged ligand captured on a CM5 chip coated with goat anti-GST IgG, GST on the reference cell; increasing concentrations of rClfB_(201–542) in PBS passed in succession without regeneration (single cycle); KD from response at equilibrium against concentration
(Surface plasmon resonance follows binding to a sensor surface in real time, without labels.)

Test [1] concerns the target GST-tagged human loricrin loop region 3 (human).
The target of test [2] is GST-tagged human loricrin loop region 2 (human).
For test [3], the target named is GST-tagged human loricrin loop region 1B (human).
In test [4] the target is GST-tagged human loricrin loop region 2v (human).
Test [5] concerns the target GST-tagged human loricrin loop region 1A (human).
Test [6] has as its target B2. Conditions: both partners purified.
Test [7] addresses B2. Particulars: both partners purified. The source holds these as a separate data set.
Test [8] has as its target T1, GST-murine loricrin_(1–480) (murine, UniProt P18165 1-486).
T1 construct: Loricrin, murine, full length, printed as residues 1-480; The printed length (480) may differ from that of the UniProt entry; also called MLor; GST-MLor; source: DNA codon optimised for E. coli, in pGEX-4T; purified on GSTrap FF; not shown: GST, N-terminal, kept
T1 sequence (looked up): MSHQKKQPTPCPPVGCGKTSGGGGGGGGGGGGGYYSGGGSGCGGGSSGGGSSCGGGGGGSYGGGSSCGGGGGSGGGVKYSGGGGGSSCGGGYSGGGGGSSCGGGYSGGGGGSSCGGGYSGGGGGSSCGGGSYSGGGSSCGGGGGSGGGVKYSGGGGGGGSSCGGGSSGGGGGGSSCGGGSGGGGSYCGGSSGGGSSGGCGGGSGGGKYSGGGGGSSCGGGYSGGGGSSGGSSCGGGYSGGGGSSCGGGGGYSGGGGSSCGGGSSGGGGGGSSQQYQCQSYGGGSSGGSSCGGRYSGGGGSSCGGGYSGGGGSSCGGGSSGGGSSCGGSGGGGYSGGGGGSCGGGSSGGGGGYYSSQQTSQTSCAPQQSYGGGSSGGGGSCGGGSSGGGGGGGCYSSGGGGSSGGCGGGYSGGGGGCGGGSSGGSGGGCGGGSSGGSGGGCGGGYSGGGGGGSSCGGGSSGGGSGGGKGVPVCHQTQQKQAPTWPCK
Conditions: both partners purified.

With “Recombinant ClfB N2N3 (rClfB_(201–542)) (from UniProt O86476 201-542) (domain or fragment)”, the Kd came out at 5.47 µM in test [1]; 3.31 µM in test [2]; 34.5 µM in test [3]; 2.21 µM in test [4]; 16.7 µM in test [5].
B1: the results for the Kd in test [6] and in test [7] were 5.52 ± 1.5 µM and 5.25 µM, respectively.
Take B2: the Kd in test [8] came out at 15.7 µM.
In the case of B3, in test [7], the Kd is 4.33 µM.
Turning to B4, the Kd in test [7] was 7.89 µM.
In the case of B5, the Kd in test [7] was determined as 14.4 µM.

A word on the Kd: it is a measure of binding affinity in units of concentration.
